Legend:
[1] = molecular target: Slr1270 protein from Synechocystis 6803, refolded, C-terminal His tag (Synechocystis 6803); assay: native gel or EMSA
[2] = molecular target: Slr1270 protein from Synechocystis 6803, refolded, C-terminal His tag (Synechocystis 6803); assay: SEC
[3] = molecular target: Slr1270 protein from Synechocystis 6803, refolded, C-terminal His tag (Synechocystis 6803); assay: SDS-PAGE without boiling

stoichiometry N [1]: 3 | stoichiometry N [2]: 3 | stoichiometry N [3]: 3
Substance: Slr1270 protein from Synechocystis 6803, refolded, C-terminal His tag (natural protein)

Source: PMC4288923
